Assay [1] addresses T1, GGA3 (from HeLa cell lysate) (human (HeLa cells), UniProt Q9NZ52 1-723).
T1 sequence (looked up): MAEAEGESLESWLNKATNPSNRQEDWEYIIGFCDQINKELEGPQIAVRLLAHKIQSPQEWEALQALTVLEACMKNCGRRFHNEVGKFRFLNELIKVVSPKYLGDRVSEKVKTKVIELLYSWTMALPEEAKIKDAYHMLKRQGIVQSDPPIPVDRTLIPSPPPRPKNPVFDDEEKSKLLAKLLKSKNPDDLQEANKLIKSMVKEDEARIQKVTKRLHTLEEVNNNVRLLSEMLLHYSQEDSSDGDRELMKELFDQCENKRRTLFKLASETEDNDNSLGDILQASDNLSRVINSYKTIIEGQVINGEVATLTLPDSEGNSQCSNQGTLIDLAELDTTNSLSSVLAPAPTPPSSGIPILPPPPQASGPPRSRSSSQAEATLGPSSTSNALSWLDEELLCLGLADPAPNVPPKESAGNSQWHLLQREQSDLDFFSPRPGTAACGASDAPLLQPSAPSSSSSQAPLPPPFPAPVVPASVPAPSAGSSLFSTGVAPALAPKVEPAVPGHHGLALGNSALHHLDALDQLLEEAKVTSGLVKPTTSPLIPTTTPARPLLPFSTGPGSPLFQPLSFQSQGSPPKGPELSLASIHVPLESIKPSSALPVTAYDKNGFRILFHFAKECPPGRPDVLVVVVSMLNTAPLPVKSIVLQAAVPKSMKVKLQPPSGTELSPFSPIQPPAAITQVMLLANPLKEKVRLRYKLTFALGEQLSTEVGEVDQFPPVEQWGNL
Briefly: GST pull-down from HeLa cell extract, immunoblot. For orientation: A western blot detects proteins with antibodies after separation by electrophoresis.

In assay [2] the target is T2, GGA2 (from HeLa cell lysate) (human (HeLa cells), UniProt Q9UJY4 1-613).
T2 sequence (looked up): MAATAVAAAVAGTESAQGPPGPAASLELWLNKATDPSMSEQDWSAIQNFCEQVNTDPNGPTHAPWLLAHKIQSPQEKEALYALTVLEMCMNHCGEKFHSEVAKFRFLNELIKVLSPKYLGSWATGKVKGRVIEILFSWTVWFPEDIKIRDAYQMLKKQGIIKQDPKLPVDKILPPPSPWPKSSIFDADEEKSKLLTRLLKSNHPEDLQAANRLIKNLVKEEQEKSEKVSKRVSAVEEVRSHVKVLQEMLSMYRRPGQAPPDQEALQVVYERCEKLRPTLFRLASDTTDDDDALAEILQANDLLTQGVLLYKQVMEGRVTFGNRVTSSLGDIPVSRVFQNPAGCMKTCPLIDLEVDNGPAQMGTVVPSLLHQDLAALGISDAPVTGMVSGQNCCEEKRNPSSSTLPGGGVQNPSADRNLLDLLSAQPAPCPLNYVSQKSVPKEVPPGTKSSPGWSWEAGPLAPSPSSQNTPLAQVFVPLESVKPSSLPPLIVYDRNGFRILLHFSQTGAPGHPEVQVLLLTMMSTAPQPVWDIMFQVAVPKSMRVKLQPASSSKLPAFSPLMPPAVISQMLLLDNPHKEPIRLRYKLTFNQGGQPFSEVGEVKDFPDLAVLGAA
Kind of assay: GST pull-down from HeLa cell extract, immunoblot.

From EP2420830B1 (Forschungsverbund Berlin e.V., dated 2016) come the findings set out here.

Substitutions are numbered along the chain they refer to.

B1: GST fusion protein of the human CIC-7 N-terminus, mutant combining LL23/24AA and LL68/69AA (2xLLAA) (other)
chain: MANVSKKVSWSGRDRDDEEAAPAARRTARPGGGTPLLNGAGPGAARQSPRSALFRVGHMSSVELDDEAADPDMDPPHPFPKEIPHNEKLLSLKYESLDYDNSENQLFLEEERRINHTAFRTVEIKR
notes: not shown: N-terminal GST tag of pGEX-5X-1 and the vector linker
On to B1, for which the binding result in assay [1] and in assay [2] was “no binding” in each case.

B2: GST fusion protein of the human CIC-7 N-terminus, mutant LL68/69AA (other)
chain: B1 chain with A23L, A24L
notes: as for B1
Regarding B2, the binding result in assay [1] and in assay [2] was “no binding” throughout.
